From the supplement of paper PMC9112550, “Optimization of the antimicrobial peptide Bac7 by deep mutational scanning” (BMC Biology, 2022)

test system: Escherichia coli TOP10; assay: shrunken log2 fold change of peptide-encoding DNA abundance (4.5 h post-induction vs induction); higher = less antimicrobial activity (less host growth inhibition); conditions: time post-induction: 4.5 h; library: site-saturation at positions 5, 18, 19, 20
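Note: peptides expressed intracellularly from a pBAD plasmid library in pooled LB shake-flask culture, induced with 0.3% L-arabinose, DNA abundance read by NGS, three biological replicates, DESeq2 with apeglm shrinkage.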

Row | Sequence | shrunken log2 fold change
1 | RRIRWRPPRLPRPRPRPMWDPRP | 0.157
2 | RRIRMRPPRLPRPRPRPKGQPRP | 1.28
3 | RRIRYRPPRLPRPRPRPHSNPRP | -0.0748
4 | RRIRARPPRLPRPRPRPVLTPRP | 0.384
5 | RRIRLRPPRLPRPRPRPWNQPRP | 0.0295
6 | RRIRNRPPRLPRPRPRPVHLPRP | -0.138
7 | RRIRSRPPRLPRPRPRPIPCPRP | -0.297
8 | RRIRNRPPRLPRPRPRPFGQPRP | -0.282
9 | RRIRRRPPRLPRPRPRPWMQPRP | 0.0811
10 | RRIRPRPPRLPRPRPRPKHSPRP | -0.155
11 | RRIRVRPPRLPRPRPRPEDQPRP | 0.0356
12 | RRIRHRPPRLPRPRPRPEMFPRP | 0.223
13 | RRIRIRPPRLPRPRPRPIALPRP | -0.149
14 | RRIRHRPPRLPRPRPRPHKRPRP | 0.0586
15 | RRIRTRPPRLPRPRPRPPTLPRP | 0.0694
16 | RRIRARPPRLPRPRPRPNIAPRP | 0.464
17 | RRIRKRPPRLPRPRPRPICIPRP | 0.163
18 | RRIRGRPPRLPRPRPRPNMSPRP | 0.161
19 | RRIRPRPPRLPRPRPRPAWAPRP | 0.45
20 | RRIRFRPPRLPRPRPRPNLGPRP | -0.0272
21 | RRIRYRPPRLPRPRPRPRCFPRP | -0.152
22 | RRIRQRPPRLPRPRPRPFRVPRP | -0.153
23 | RRIRHRPPRLPRPRPRPVFCPRP | -0.138
24 | RRIRVRPPRLPRPRPRPIRMPRP | -0.243
25 | RRIRCRPPRLPRPRPRPETLPRP | -0.193

Row | Sequence | shrunken log2 fold change
26 | RRIRWRPPRLPRPRPRPTTMPRP | -0.0212
27 | RRIRLRPPRLPRPRPRPAGKPRP | -0.132
28 | RRIRQRPPRLPRPRPRPKWHPRP | 0.48
29 | RRIRPRPPRLPRPRPRPQWAPRP | 0.052
30 | RRIRTRPPRLPRPRPRPVLYPRP | -0.365
31 | RRIRVRPPRLPRPRPRPACLPRP | -0.444
32 | RRIRERPPRLPRPRPRPKNEPRP | -0.315
33 | RRIRIRPPRLPRPRPRPNNQPRP | -0.836
34 | RRIRERPPRLPRPRPRPLLQPRP | -0.0771
35 | RRIRMRPPRLPRPRPRPGFWPRP | 0.836
36 | RRIRYRPPRLPRPRPRPQICPRP | -0.00591
37 | RRIRFRPPRLPRPRPRPTIRPRP | -0.41
38 | RRIRNRPPRLPRPRPRPTPFPRP | -0.07
39 | RRIRPRPPRLPRPRPRPGYQPRP | -0.0523
40 | RRIRKRPPRLPRPRPRPCGKPRP | 0.00875
41 | RRIRWRPPRLPRPRPRPTDVPRP | -0.283
42 | RRIRCRPPRLPRPRPRPEAYPRP | -0.0117
43 | RRIRMRPPRLPRPRPRPFREPRP | 0.2
44 | RRIRRRPPRLPRPRPRPFATPRP | 0.814
45 | RRIRARPPRLPRPRPRPSIEPRP | 0.0128
46 | RRIRARPPRLPRPRPRPICVPRP | 0.154
47 | RRIRQRPPRLPRPRPRPAFGPRP | 0.171
48 | RRIRARPPRLPRPRPRPSNTPRP | -0.31
49 | RRIRTRPPRLPRPRPRPKCPPRP | 0.281
50 | RRIRMRPPRLPRPRPRPVDMPRP | 0.185

Row | Sequence | shrunken log2 fold change
51 | RRIRCRPPRLPRPRPRPLWKPRP | 0.101
52 | RRIRKRPPRLPRPRPRPLMMPRP | 0.207
53 | RRIRGRPPRLPRPRPRPQCSPRP | -0.0401
54 | RRIRSRPPRLPRPRPRPNQKPRP | -0.162
55 | RRIRQRPPRLPRPRPRPWGRPRP | 0.00592
56 | RRIRSRPPRLPRPRPRPPPLPRP | 0.739
57 | RRIRSRPPRLPRPRPRPRTSPRP | 0.211
58 | RRIRERPPRLPRPRPRPLKDPRP | -0.0646
59 | RRIRDRPPRLPRPRPRPPQLPRP | 0.143
60 | RRIRQRPPRLPRPRPRPYVYPRP | 0.00646
61 | RRIRVRPPRLPRPRPRPQSEPRP | -0.107
62 | RRIRMRPPRLPRPRPRPCQPPRP | -0.0351
63 | RRIRIRPPRLPRPRPRPQMWPRP | -0.171
64 | RRIRRRPPRLPRPRPRPWRNPRP | 0.0985
65 | RRIRNRPPRLPRPRPRPGRTPRP | 0.153
66 | RRIRFRPPRLPRPRPRPNHFPRP | -0.0292
67 | RRIRHRPPRLPRPRPRPPDCPRP | 0.182
68 | RRIRGRPPRLPRPRPRPAVLPRP | 0.394
69 | RRIRKRPPRLPRPRPRPSLMPRP | 0.256
70 | RRIRLRPPRLPRPRPRPPHAPRP | 1.2
71 | RRIRPRPPRLPRPRPRPVVEPRP | -0.0705
72 | RRIRMRPPRLPRPRPRPIGFPRP | -0.01
73 | RRIRFRPPRLPRPRPRPRKAPRP | 0.182
74 | RRIRARPPRLPRPRPRPGSGPRP | 0.576
75 | RRIRMRPPRLPRPRPRPEGAPRP | 3.32

Row | Sequence | shrunken log2 fold change
76 | RRIRYRPPRLPRPRPRPNRCPRP | 0.00786
77 | RRIRWRPPRLPRPRPRPSFWPRP | 0.372
78 | RRIRFRPPRLPRPRPRPQFTPRP | -0.362
79 | RRIRFRPPRLPRPRPRPLLGPRP | 0.123
80 | RRIRQRPPRLPRPRPRPSSPPRP | 0.167
81 | RRIRFRPPRLPRPRPRPRHQPRP | 0.0747
82 | RRIRTRPPRLPRPRPRPEHHPRP | -0.203
83 | RRIRLRPPRLPRPRPRPVECPRP | 0.0709
84 | RRIRSRPPRLPRPRPRPLCLPRP | 0.259
85 | RRIRKRPPRLPRPRPRPTDWPRP | 0.169
86 | RRIRWRPPRLPRPRPRPRTAPRP | 0.564
87 | RRIRKRPPRLPRPRPRPNRCPRP | 0.0393
88 | RRIRVRPPRLPRPRPRPHPPPRP | 0.361
89 | RRIRQRPPRLPRPRPRPAKQPRP | 0.0569
90 | RRIRYRPPRLPRPRPRPKGWPRP | 0.465
91 | RRIRSRPPRLPRPRPRPMHMPRP | -0.13
92 | RRIRLRPPRLPRPRPRPVKIPRP | -0.169
93 | RRIRERPPRLPRPRPRPWMHPRP | -0.126
94 | RRIRYRPPRLPRPRPRPRIMPRP | -1.06
95 | RRIRSRPPRLPRPRPRPKDEPRP | 0.382
96 | RRIRDRPPRLPRPRPRPNLRPRP | -0.162
97 | RRIRRRPPRLPRPRPRPCQFPRP | -0.0684
98 | RRIRFRPPRLPRPRPRPMAYPRP | -0.0672
99 | RRIRLRPPRLPRPRPRPPARPRP | 0.789
100 | RRIRWRPPRLPRPRPRPHLQPRP | 0.103

Row | Sequence | shrunken log2 fold change
101 | RRIRERPPRLPRPRPRPTVVPRP | -0.188
102 | RRIRERPPRLPRPRPRPCNEPRP | -1.12
103 | RRIRTRPPRLPRPRPRPFRHPRP | 0.00803
104 | RRIRVRPPRLPRPRPRPPFKPRP | 0.163
105 | RRIRCRPPRLPRPRPRPYNLPRP | -0.986
106 | RRIRLRPPRLPRPRPRPPFFPRP | 0.14
107 | RRIRWRPPRLPRPRPRPKKIPRP | 0.0449
108 | RRIRVRPPRLPRPRPRPEWGPRP | 2.29
109 | RRIRYRPPRLPRPRPRPRACPRP | -0.143
110 | RRIRFRPPRLPRPRPRPRICPRP | 0.0102
111 | RRIRNRPPRLPRPRPRPQQVPRP | -0.0087
112 | RRIRKRPPRLPRPRPRPCVSPRP | -0.376
113 | RRIRARPPRLPRPRPRPVCMPRP | 0.226
114 | RRIRSRPPRLPRPRPRPPSWPRP | 0.482
115 | RRIRIRPPRLPRPRPRPCEVPRP | 0.0421
116 | RRIRVRPPRLPRPRPRPMVCPRP | -0.062
117 | RRIRIRPPRLPRPRPRPKKKPRP | -0.442
118 | RRIRYRPPRLPRPRPRPEFDPRP | -0.0306
119 | RRIRQRPPRLPRPRPRPHGEPRP | 0.215
120 | RRIRLRPPRLPRPRPRPFEAPRP | -0.256
121 | RRIRPRPPRLPRPRPRPKFIPRP | -0.308
122 | RRIRMRPPRLPRPRPRPTSWPRP | 0.834
123 | RRIRYRPPRLPRPRPRPGFMPRP | -0.279
124 | RRIRGRPPRLPRPRPRPHMQPRP | -0.121
125 | RRIRSRPPRLPRPRPRPNDCPRP | -0.00188

Row | Sequence | shrunken log2 fold change
126 | RRIRFRPPRLPRPRPRPTDDPRP | -0.019
127 | RRIRHRPPRLPRPRPRPMTWPRP | 0.148
128 | RRIRMRPPRLPRPRPRPDHHPRP | -0.111
129 | RRIRCRPPRLPRPRPRPFMEPRP | -0.996
130 | RRIRVRPPRLPRPRPRPEVWPRP | 0.405
131 | RRIRSRPPRLPRPRPRPFDWPRP | -0.0461
132 | RRIRPRPPRLPRPRPRPRAKPRP | 0.692
133 | RRIRCRPPRLPRPRPRPHVTPRP | -0.64
134 | RRIRQRPPRLPRPRPRPHVAPRP | -0.0333
135 | RRIRSRPPRLPRPRPRPEVKPRP | 0.287
136 | RRIRGRPPRLPRPRPRPAVVPRP | 0.488
137 | RRIRHRPPRLPRPRPRPQTIPRP | -0.793
138 | RRIRSRPPRLPRPRPRPSKIPRP | -0.378
139 | RRIRTRPPRLPRPRPRPWRTPRP | 0.112
140 | RRIRDRPPRLPRPRPRPSSDPRP | 0.412
141 | RRIRIRPPRLPRPRPRPMQIPRP | -0.099
142 | RRIRTRPPRLPRPRPRPYKEPRP | -0.228
143 | RRIRKRPPRLPRPRPRPAQSPRP | 0.0619
144 | RRIRYRPPRLPRPRPRPFWLPRP | -0.0817
145 | RRIRDRPPRLPRPRPRPMIKPRP | -0.222
146 | RRIRTRPPRLPRPRPRPNEDPRP | -0.0528
147 | RRIRCRPPRLPRPRPRPKPPPRP | 0.931
148 | RRIRQRPPRLPRPRPRPFCNPRP | 0.0828
149 | RRIRERPPRLPRPRPRPVLEPRP | -0.0875
150 | RRIRRRPPRLPRPRPRPAHPPRP | 0.769
